Non-standard residues stand in square brackets, D forms with d. pGlu = O=C1CC[C@@H](C(=O)O)N1; azaGly = NNC(=O)O
How the values were obtained:
[1] = biological target: human placental GnRH receptor (human) (UniProt P30968); assay: competitive radioreceptor assay on human term placental membranes, radiolabeled Buserelin as competitor
[2] = biological target: chorionic peptidase-1 (C-ase-1) (human); assay: inhibition of C-ase-1 degradation of GnRH (competitor)
[3] = biological target: chorionic peptidase-1 (C-ase-1) (human); assay: competitive inhibition of C-ase-1 degradation of mammalian GnRH (competitor)
[4] = biological target: chorionic peptidase-1 (C-ase-1) (human); assay: competitive inhibition of C-ase-1 degradation of GnRH (competitor)
[5] = biological target: chorionic peptidase-1 (C-ase-1) (human); assay: cell-based or functional assay
[6] = biological target: chorionic peptidase-1 (C-ase-1) (human); assay: competitive inhibition of C-ase-1 degradation of GnRH
[7] = biological target: baboon ovarian enzymatic activity that degrades GnRH; assay: degradation assay with baboon ovarian homogenate, double reciprocal plot
[8] = biological target: chorionic peptidase-1 (C-ase-1) (human); assay: C-ase-1 degradation assay, Lineweaver-Burke double reciprocal plot
[9] = biological target: human placental GnRH receptor (human) (UniProt P30968); assay: competitive radioreceptor assay, human term placental GnRH receptors, 125I-Buserelin as competitor
[10] = biological target: human placental GnRH receptor (human) (UniProt P30968); assay: homologous radioreceptor assay, average of three human term placental membrane preparations
[11] = biological target: human placental GnRH receptor (human) (UniProt P30968); assay: radioreceptor assay on human term placental membranes, radiolabeled D-Arg(6)-chicken II GnRH-aza-Gly-amide as label
[12] = biological target: baboon ovarian GnRH receptor (baboon); assay: radioreceptor assay, baboon ovary membrane fraction, radiolabeled D-Arg(6)-chicken II GnRH-aza-Gly(10)-amide
[13] = biological target: human placental GnRH receptor (human) (UniProt P30968); assay: homologous radioreceptor assay on human term placental membranes, radiolabeled D-Arg-chicken II GnRH-aza-Gly-amide as label
[14] = biological target: baboon endometrium GnRH receptor (baboon); assay: receptor binding, baboon endometrium (stroma and epithelium)
[15] = biological target: human placental GnRH receptor (human) (UniProt P30968); assay: competitive radioreceptor assay on human term placental membranes, radiolabeled Buserelin as competitor, double reciprocal plot
[16] = biological target: baboon ovarian GnRH receptor (baboon); assay: radioligand binding, baboon ovary membrane fraction
[17] = biological target: human placental GnRH receptor (human) (UniProt P30968); assay: homologous radioreceptor assay, placenta 2 membrane preparation, radiolabeled D-Arg(6)-chicken II GnRH-aza-Gly-amide as label

Which results are given for chicken II GnRH (peptide)?
fold potency over mammalian GnRH [1]: 3 fold; relative potency compared to GnRH (relative potency) [2]: 0.2; potency relative to mammalian GnRH [3]: 0.167 fold; Ki [4]: 200 nM

With “des-Gly10-GnRH-ethylamide (from UniProt P01148 24-92) (peptide)” as the molecule, how does the Ki [4] read?
The Ki was 70 nM.

How did the Ki [4] turn out when “des-Gly10, D-Leu6-GnRH-ethylamide (from UniProt P01148 24-92) (peptide)” was run?
Its Ki is 80 nM.

Which relative potency compared to GnRH (relative potency) [2] does the source give for “9OH-Pro-GnRH (from UniProt P01148 24-92) (peptide)” here?
The relative potency compared to GnRH (relative potency) was 1.5.

With “Buserelin (from UniProt P01148 24-32) (peptide)” as the molecule, how does the rate of degradation by C-ase-1 (fold of the rate for mammalian GnRH) [5] read?
The rate of degradation by C-ase-1 (fold of the rate for mammalian GnRH) was 0.25.

What about the Ki [4] of the same molecule?
Its Ki is 110 nM.

With “Mammalian D-Trp (6) GnRH (from UniProt P01148 24-92) (peptide)” as the molecule, how does the Ki [4] read?
Its Ki is 20 nM.

With chicken I GnRH (peptide) as the molecule, how does the fold less potent than GnRH [6] read?
Its fold less potent than GnRH is 3 fold.

What about the fold more potent than salmon or chicken II GnRH [6] of the same molecule?
Its fold more potent than salmon or chicken II GnRH is 2 fold.

And the relative potency compared to GnRH (relative potency) [2]?
The relative potency compared to GnRH (relative potency) was 0.6.

What about the Ki [4] of the same molecule?
The Ki was 80 nM.

With lamprey GnRH (peptide) as the molecule, how does the relative potency compared to GnRH (relative potency) [2] read?
Its relative potency compared to GnRH (relative potency) is 1.5.

And the Ki [4]?
The Ki was 20 nM.

“mammalian GnRH (from UniProt P01148 24-33) (peptide)” was tested. Which Ks [7] did it give?
Its Ks is 30 nM.

And the Ks [8]?
The Ks was 30 nM.

What about the Ki [4] of the same molecule?
Its Ki is 30 nM.

What does the source list for chicken II GnRH-ethylamide (peptide)?
fold less active than GnRH [6]: > 200 fold; Kd [9]: 30 nM; fold activity over GnRH [9]: 33 fold; Ki [4]: 130 nM

For salmon GnRH (peptide), which relative potency compared to GnRH (relative potency) [2] is on record?
Its relative potency compared to GnRH (relative potency) is 0.2.

What about the Ki [4] of the same molecule?
Its Ki is 300 nM.

“D-Arg (6)-salmon GnRH-aza-Gly (10)-amide (peptide)” was tested. Which Ki [4] did it give?
The Ki was 200 nM.

How did the Ki [4] turn out when “6D-Trp-GnRH-10 ethylamide (from UniProt P01148 24-32) (peptide)” was run?
Its Ki is 60 nM.

Antide (peptide) was tested. Which fold less potent than GnRH [6] did it give?
Its fold less potent than GnRH is 3 fold.

What about the fold more potent than salmon or chicken II GnRH [6] of the same molecule?
The fold more potent than salmon or chicken II GnRH was 2 fold.

What about the relative potency compared to GnRH (relative potency) [2] of the same molecule?
The relative potency compared to GnRH (relative potency) was 0.6.

What about the Ki [4] of the same molecule?
Its Ki is 120 nM.

B1: D-Arg(6)-chicken II GnRH-aza-Gly(10)-amide (peptide)
peptide: [pGlu]HWSH[dR]WYP[azaGly]-NH2
modifications: also: also used radioiodinated as label
For B1, which fold affinity over chicken II GnRH or Buserelin [1] is on record?
The fold affinity over chicken II GnRH or Buserelin was 2 fold.

What about the fold affinity over mammalian GnRH [1] of the same molecule?
The fold affinity over mammalian GnRH was 60 fold.

What about the Kd [10] of the same molecule?
Its Kd is 93 nM.

What about the fold affinity over mammalian GnRH [11] of the same molecule?
Its fold affinity over mammalian GnRH is 25 fold.

What about the Kd [12] of the same molecule?
Its Kd is 10 nM.

What about the fold change of affinity against the assay with the Buserelin label [13] of the same molecule?
Its fold change of affinity against the assay with the Buserelin label is 2 fold.

And the Kd [14]?
The Kd was 60 nM.

What about the Kd [15] of the same molecule?
Its Kd is 175 nM.

And the specific activity of binding, fold over placental membrane preparations [16]?
Its specific activity of binding, fold over placental membrane preparations is 50 to 100 fold.

And the Kd [17]?
The Kd was 68 nM.
